Source: patent publication CN117396514A (ELEKTA S R L, dated 2024)

Experiments:
人MerTK, M2c分化的人巨噬细胞上 [1] = molecular target: T1, 人MerTK, M2c分化的人巨噬细胞上 (human, UniProt Q12866 21-999); assay: cell-based or functional assay
T1 sequence: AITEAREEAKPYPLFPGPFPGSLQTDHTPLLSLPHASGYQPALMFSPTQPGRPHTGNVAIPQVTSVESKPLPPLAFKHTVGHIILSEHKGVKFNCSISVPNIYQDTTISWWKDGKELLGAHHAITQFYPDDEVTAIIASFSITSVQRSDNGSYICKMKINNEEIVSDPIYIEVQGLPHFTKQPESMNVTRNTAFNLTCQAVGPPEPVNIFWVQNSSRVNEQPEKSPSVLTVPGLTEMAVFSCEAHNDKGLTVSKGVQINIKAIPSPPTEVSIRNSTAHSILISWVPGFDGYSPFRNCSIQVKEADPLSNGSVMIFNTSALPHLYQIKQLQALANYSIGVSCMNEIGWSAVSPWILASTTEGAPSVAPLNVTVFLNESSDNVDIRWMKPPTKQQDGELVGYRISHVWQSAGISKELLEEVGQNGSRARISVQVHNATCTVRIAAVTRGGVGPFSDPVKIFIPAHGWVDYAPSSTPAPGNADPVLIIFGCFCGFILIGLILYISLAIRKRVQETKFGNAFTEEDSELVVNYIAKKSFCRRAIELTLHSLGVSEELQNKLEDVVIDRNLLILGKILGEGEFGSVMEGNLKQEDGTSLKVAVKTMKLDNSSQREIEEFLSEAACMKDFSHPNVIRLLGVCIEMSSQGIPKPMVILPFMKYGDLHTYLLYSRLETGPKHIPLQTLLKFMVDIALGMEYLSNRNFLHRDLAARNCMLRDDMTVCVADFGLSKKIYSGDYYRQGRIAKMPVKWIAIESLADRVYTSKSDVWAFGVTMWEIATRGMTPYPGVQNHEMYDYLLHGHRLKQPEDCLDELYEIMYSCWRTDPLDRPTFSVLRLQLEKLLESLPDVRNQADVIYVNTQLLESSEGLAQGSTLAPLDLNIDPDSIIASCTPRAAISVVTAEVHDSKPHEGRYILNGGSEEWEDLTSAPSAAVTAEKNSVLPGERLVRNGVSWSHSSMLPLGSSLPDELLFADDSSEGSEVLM

人MerTK, M2c分化的人巨噬细胞上 [2] = molecular target: T1, 人MerTK, M2c分化的人巨噬细胞上; assay: FACS, Dylight650-conjugated antibody titrated on M2c differentiated human macrophages; Kd from MFI by Prism (EC50-like)

B1: 单价(单臂)抗MerTK抗体MTK-16.2 (Fc LALAPS) (antibody, V domains shown)
VH: QVQLVQSGSELKKPGASVKVSCKASGYTFTNHGMNWVRQAPGQGLEWMGWINTYTGEPTYADDFKGRFVFSLDTSVSTAYLQISSLKAEDTAVYYCARKGVTAARYFDYWGQGTLVTVSS
VL: DIQMTQSPSSLSASVGDRVTITCRASQNVRTAVAWYQQKPGKAPKRLIYLASNRHTGVPSRFSGSGSGTEFTLTISNLQPEDFATYYCLQHWNYPLTFGGGTKLEIK
modifications: Dylight650 conjugate in the FACS binding assay (site not stated)
- 胞葬作用 IC50 (efferocytosis of pHrodo-labelled apoptotic Jurkat cells by M2c human macrophages) (人MerTK, M2c分化的人巨噬细胞上 [1]): 37.9 nM
- Kd (人MerTK, M2c分化的人巨噬细胞上 [2]): ~78 nM

B2: 二价(全IgG)抗MerTK抗体MTK-16.2 (Fc LALAPS) (antibody, V domains shown)
VH: B1 VH
VL: DIQMTQSPSSLSASVGDRVTITCRASQNVRTAVAWYQQKPGKAPKRLIYLASNRHTGVPSRFSGSGSGTEFTLTISNLQPEDFATYYCLQHWNYPLTFGGGTKLEIKR
modifications: Dylight650 conjugate in the FACS binding assay (site not stated)
- 胞葬作用 IC50 (efferocytosis of pHrodo-labelled apoptotic Jurkat cells by M2c human macrophages) (人MerTK, M2c分化的人巨噬细胞上 [1]): 0.436 nM
- Kd (人MerTK, M2c分化的人巨噬细胞上 [2]): ~52 nM

B3: 单价(单臂)抗MerTK抗体MTK-33.11 (Fc LALAPS) (antibody, V domains shown)
VH: QVQLVQSGAEVKKPGASVKVSCKASGYTFTSYWMHWVRQAPGQGLEWIGVIDPSDNYINYNQKFQGRVTMTRDTSTSTVYMELSSLRSEDTAVYYCAREAWTRGYFDYWGQGTLVTVSS
VL: DIQMTQSPSSLSASVGDRVTITCQASRSVRNTVAWYQQKPGKAPKLLIYYASNRYTGVPSRFSGSGSGTDFTFTISSLQPEDIATYYCQQDYRSPFTFGQGTKLEIK
modifications: Dylight650 conjugate in the FACS binding assay (site not stated)
- 胞葬作用 IC50 (efferocytosis of pHrodo-labelled apoptotic Jurkat cells by M2c human macrophages) (人MerTK, M2c分化的人巨噬细胞上 [1]): ~4.4 nM
